# Data taken from patent US20240254220A1, “COMBINED THERAPY USING ANTI-CD300C ANTIBODY” (CentricsBio, Inc., priority 2021, published 2024).
# B1: CL7: anti-CD300c monoclonal antibody, VH3VL1 phage library, VH SEQ ID 327, VL SEQ ID 328 (antibody, V domains shown)
# VH: EVQLLESGGGLVQPGGSLRLSCAASGFTFSRYAMSWVRQAPGKGLEWVSAISGSGGSTYYADSVKGRFTISRDNSKNTLYLQMNSLRAEDTAVYYCARSSQGIFDIWGQGTLVTVSS
# VL: QSVLTQPPSASGTPGQRVTISCSGNNIGTRRVHWYQQLPDTAPKLLIYSKNNRPSGVPDRFSGSKSGTSASLAISGLRSEDEADYYCAAWDDSLSGPVFGGGTKLTVL
# modifications: CL7 Heavy Chain Variable Region; CL7 Light Chain Variable Region
# Columns and labels:
# [1] = test system: colon cancer cell line (CT26) tumor; assay: IFN-g ELISPOT of spleen in CT26 syngeneic mouse tumor model; format: in vivo, BALB/c mice; settings: 25 mg/kg i.p., day 25
# Procedure: In order to identify effects of the anti-CD300c monoclonal antibody CL7 on CD8+ T cells under in vivo conditions, syngeneic mouse tumor models were prepared as in Experimental Example 3.2 and administered the anti-CD300c monoclonal antibody at the same concentration. On day 25 after injection, the mice were sacrificed, and spleen were collected from each of six mice in the CL7 25 mg/kg administration group showing a highest antitumor effect compared with the control group. Subsequently, the results were identified by measuring IFN-g through ELISPOT assay. Specifically, the Mouse IFN-g ELISpot kit was purchased from R&D Systems (#EL485), and IFN-g was measured according to the protocol for the kit.
# [2] = test system: MDA-MB-231 (human breast cancer cell line); assay: MDA-MB-231 cancer cell growth inhibition (CCK-8); format: cell-based; settings: 10 μg/mL each, 5 days
# Source text: In order to identify cancer cell growth inhibitory effects by combined administration of the anti-CD300c monoclonal antibody CL7 and an immunotherapeutic agent, the cancer cell growth inhibitory effects were compared using A549 (human lung cancer cell line) and MDA-MB-231 (human breast cancer cell line). Specifically, the cells were dispensed into a 96-well plate at 2×10^4 cells (A549) or 3×10^4 cells (MDA-MB-231) under 0% fetal bovine serum (FBS) conditions, and at 6×10^3 cells (A549) or 1×10^4 cells (MDA-MB-231) under 0.1% fetal bovine serum conditions. Subsequently, the cells were treated with the anti-CD300c monoclonal antibody and Imfinzi at 10 μg/mL alone or in combination, followed by incubation for 5 days. For a control group, the cells were treated with the same amount of phosphate buffer solution (PBS). Then, the cells were treated with CCK-8 (DOJINDO), and the absorbance was measured at OD 450 nm. The results are shown in FIG. 33 (A549) and FIG. 34 (MDA-MB-231).
molecule,measurement,setting,value
B1,expression of IFN-g (ELISPOT),[1],increased
same,cancer cell growth inhibitory effect compared with control group,"[2]; MDA-MB-231, 0.1% FBS (second statement)",19%
same,cancer cell growth inhibitory effect compared with control group,"[2]; MDA-MB-231, 0.1% FBS as printed (first statement)",19%
